Values of other authors in article PMC3760146.

Target: Histone H4 K8ac peptide 1-12 (Homo sapiens) (UniProt P62805)
Assay: NMR titration

Kd: 346 µM
Substance: P/CAF bromodomain (from UniProt Q92831)
